{
  "source": "patent US20260184748A1",
  "about": "(University of Pennsylvania, published 2026)",
  "binders": {"B1": {"name": "octadecaneuropeptide (ODN) (peptide)", "peptide": "QATVGDVNTDRPGLLDLK", "modifications": "also: synthesised on Rink amide resin, C-terminal amide not given here outright"}},
  "assay_in_all_cases": "cell-based or functional assay",
  "key": {"MRGPRX2": {"target": "T1, MRGPRX2 (UniProt Q96LB1 1-330)", "T1 sequence (looked up)": "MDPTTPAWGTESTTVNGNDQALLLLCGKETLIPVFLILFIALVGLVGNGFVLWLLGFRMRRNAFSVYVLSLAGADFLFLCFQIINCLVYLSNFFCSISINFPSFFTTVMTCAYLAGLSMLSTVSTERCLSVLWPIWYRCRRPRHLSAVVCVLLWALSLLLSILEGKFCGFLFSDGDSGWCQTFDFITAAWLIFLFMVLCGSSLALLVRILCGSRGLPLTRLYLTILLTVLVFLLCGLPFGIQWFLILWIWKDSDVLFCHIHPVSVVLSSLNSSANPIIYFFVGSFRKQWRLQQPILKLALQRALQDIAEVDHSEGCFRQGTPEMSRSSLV"}, "P2RY1": {"target": "P2RY1 (UniProt P47900 1-373)", "sequence (P47900 whole entry)": "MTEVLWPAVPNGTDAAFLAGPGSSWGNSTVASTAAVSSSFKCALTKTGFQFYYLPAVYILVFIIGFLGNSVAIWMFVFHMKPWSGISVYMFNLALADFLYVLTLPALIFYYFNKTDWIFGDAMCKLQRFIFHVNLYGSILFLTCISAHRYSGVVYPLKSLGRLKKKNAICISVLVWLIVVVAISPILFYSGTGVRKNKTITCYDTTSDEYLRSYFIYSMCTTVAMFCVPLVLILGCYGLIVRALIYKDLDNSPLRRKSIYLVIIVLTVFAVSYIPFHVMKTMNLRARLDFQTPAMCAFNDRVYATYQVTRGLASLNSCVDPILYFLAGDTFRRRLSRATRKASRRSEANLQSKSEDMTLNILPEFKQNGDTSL"}, "P2RY11": {"target": "T2, P2RY11 (UniProt Q96G91 1-374)", "T2 sequence (looked up)": "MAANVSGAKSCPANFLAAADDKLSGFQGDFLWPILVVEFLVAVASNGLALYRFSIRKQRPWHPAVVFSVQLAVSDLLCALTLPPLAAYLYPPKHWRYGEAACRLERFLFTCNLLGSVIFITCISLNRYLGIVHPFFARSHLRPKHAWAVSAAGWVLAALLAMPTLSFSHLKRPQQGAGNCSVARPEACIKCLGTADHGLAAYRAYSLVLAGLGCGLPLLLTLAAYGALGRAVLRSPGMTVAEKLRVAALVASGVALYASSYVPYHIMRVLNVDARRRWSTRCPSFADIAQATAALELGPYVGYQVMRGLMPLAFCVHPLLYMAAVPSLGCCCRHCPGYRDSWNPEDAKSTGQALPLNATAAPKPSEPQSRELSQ"}, "P2RY6": {"target": "P2RY6 (UniProt Q15077 1-328)", "sequence (Q15077 whole entry)": "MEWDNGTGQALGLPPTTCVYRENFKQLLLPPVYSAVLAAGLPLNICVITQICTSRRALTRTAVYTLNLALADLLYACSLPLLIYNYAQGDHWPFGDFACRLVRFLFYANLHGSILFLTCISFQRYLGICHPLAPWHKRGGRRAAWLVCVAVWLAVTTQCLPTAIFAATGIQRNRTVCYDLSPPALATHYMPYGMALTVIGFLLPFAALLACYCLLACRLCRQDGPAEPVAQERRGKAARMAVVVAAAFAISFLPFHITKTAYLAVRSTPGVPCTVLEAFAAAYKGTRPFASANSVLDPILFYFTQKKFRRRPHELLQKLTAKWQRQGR"}, "UTR2": {"target": "T3, UTR2 (UniProt Q9UKP6 1-389)", "T3 sequence (looked up)": "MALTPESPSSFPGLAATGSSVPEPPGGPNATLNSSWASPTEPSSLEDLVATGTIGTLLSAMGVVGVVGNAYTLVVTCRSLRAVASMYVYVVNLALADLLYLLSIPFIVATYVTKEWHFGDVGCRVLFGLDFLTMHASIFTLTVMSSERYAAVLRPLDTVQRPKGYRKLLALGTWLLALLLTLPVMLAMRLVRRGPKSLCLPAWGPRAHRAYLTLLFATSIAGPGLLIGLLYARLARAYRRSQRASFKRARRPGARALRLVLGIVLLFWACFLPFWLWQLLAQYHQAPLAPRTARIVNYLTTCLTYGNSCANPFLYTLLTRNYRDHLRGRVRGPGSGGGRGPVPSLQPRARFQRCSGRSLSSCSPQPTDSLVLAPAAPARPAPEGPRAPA"}, "CALCRL-RAMP3": {"target": "CALCRL-RAMP3 (UniProt Q16602 23-461; O60896 24-148)", "sequence (Q16602 23-461 limits assumed, chain 1 of 2)": "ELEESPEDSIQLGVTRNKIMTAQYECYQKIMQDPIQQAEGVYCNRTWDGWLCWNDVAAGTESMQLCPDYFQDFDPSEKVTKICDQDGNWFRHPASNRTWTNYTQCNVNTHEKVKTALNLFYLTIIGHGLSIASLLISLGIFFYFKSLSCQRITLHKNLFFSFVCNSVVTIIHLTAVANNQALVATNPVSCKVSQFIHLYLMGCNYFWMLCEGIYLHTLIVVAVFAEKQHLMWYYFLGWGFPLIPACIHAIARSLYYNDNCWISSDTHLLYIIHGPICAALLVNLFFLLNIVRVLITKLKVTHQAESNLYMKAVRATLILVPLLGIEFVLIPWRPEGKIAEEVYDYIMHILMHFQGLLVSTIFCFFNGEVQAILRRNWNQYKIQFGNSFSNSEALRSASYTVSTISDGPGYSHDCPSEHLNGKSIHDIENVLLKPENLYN", "sequence (O60896 24-148 limits assumed, chain 2 of 2)": "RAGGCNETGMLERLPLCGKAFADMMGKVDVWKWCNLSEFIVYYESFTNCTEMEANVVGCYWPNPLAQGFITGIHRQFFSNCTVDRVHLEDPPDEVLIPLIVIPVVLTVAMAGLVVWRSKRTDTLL"}, "CCR9": {"target": "T4, CCR9 (UniProt P51686 1-369, limits assumed)", "T4 sequence (looked up)": "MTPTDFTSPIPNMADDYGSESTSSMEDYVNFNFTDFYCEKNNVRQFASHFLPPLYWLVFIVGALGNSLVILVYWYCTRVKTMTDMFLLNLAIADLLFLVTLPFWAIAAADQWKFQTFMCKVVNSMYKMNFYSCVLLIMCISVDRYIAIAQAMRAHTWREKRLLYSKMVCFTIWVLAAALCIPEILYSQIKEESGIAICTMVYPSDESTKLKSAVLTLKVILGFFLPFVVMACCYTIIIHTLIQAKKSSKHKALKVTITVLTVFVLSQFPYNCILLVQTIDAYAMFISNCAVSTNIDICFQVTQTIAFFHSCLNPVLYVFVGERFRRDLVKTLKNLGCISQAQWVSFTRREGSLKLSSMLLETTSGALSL"}, "CNR1": {"target": "CNR1 (UniProt P21554 1-472)", "sequence (P21554 whole entry)": "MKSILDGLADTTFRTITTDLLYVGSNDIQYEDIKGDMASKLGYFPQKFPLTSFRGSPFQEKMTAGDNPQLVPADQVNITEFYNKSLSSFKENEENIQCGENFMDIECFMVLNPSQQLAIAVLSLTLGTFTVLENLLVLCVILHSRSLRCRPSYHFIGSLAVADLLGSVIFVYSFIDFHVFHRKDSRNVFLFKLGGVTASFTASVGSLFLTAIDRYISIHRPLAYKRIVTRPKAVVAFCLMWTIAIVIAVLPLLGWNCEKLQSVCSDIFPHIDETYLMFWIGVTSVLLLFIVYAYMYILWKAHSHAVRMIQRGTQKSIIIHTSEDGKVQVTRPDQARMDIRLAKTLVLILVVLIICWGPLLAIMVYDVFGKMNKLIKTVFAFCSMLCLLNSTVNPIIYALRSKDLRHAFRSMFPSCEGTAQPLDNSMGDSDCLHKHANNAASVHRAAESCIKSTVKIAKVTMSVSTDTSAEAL"}, "ADRA2B": {"target": "T5, ADRA2B (UniProt P18089 1-450)", "T5 sequence (looked up)": "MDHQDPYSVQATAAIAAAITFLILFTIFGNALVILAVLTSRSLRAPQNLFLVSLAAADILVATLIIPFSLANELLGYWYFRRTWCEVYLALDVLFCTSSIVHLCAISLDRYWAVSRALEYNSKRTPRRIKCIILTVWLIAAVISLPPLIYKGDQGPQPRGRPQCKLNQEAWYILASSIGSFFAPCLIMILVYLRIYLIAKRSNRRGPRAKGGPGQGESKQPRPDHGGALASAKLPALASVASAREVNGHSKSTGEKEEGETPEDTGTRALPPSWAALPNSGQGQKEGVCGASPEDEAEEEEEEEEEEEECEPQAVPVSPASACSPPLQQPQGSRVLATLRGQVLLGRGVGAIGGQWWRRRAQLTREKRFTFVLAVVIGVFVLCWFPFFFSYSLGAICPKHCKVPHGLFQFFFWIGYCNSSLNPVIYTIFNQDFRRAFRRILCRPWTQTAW"}, "F2RL1": {"target": "F2RL1 (UniProt P55085 26-397, limits assumed)"}, "GPR109B": {"target": "GPR109B (UniProt P49019 1-387)", "sequence (P49019 whole entry)": "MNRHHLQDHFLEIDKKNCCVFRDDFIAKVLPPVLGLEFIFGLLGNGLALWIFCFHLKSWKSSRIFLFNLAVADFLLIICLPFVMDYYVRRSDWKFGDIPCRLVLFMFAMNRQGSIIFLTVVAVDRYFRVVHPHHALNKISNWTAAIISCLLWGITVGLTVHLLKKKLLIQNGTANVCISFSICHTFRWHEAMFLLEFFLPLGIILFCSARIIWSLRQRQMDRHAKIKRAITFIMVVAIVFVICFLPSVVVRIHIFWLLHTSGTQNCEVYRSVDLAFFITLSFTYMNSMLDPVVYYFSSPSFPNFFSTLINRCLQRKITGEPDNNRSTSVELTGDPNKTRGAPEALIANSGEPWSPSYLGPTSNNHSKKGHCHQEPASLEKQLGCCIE"}, "GPR119": {"target": "T6, GPR119 (UniProt Q8TDV5 1-335)", "T6 sequence (looked up)": "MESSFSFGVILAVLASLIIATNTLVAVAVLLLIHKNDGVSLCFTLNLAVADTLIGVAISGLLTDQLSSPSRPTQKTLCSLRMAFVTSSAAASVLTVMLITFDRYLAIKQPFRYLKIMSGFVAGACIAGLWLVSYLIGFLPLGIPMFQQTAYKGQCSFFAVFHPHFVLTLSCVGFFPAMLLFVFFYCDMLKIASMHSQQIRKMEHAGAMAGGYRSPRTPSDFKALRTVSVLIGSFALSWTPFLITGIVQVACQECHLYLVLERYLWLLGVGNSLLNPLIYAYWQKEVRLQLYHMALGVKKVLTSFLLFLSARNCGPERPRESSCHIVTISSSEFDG"}, "HRH1": {"target": "HRH1 (UniProt P35367 1-487)", "sequence (P35367 whole entry)": "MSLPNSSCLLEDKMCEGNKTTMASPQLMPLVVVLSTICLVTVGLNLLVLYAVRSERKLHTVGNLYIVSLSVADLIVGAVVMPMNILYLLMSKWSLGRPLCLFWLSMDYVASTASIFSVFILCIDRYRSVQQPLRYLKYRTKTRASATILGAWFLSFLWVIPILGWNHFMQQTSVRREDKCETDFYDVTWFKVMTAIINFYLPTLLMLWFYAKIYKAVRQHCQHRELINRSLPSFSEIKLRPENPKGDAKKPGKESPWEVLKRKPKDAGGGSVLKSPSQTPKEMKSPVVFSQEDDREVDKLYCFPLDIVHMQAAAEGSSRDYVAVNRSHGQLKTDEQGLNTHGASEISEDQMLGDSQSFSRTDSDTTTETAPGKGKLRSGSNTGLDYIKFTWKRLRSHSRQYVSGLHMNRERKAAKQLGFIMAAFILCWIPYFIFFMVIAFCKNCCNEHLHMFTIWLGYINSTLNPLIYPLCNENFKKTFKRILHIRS"}},
  "note": "Where no end group is shown, it is not given here.",
  "data": [
    {"binder": "B1", "values": [
      {"measurement": "% Activity, arrestin, antagonist mode, 2.5 uM", "setting": "MRGPRX2", "result": -23.5, "unit": "%"},
      {"measurement": "% Activity, arrestin, antagonist mode, 2.5 uM", "setting": "P2RY1", "result": -6.4, "unit": "%"},
      {"measurement": "% Activity, arrestin, antagonist mode, 2.5 uM", "setting": "P2RY11", "result": -5.6, "unit": "%"},
      {"measurement": "% Activity, arrestin, antagonist mode, 2.5 uM", "setting": "P2RY6", "result": -15.1, "unit": "%"},
      {"measurement": "% Activity, arrestin, antagonist mode, 2.5 uM", "setting": "UTR2", "result": -27.2, "unit": "%"},
      {"measurement": "% Activity, arrestin, antagonist mode, 2.5 uM", "setting": "CALCRL-RAMP3", "result": -3.5, "unit": "%"},
      {"measurement": "% Activity, arrestin, antagonist mode, 2.5 uM", "setting": "CCR9", "result": -10.1, "unit": "%"},
      {"measurement": "% Activity, arrestin, antagonist mode, 2.5 uM", "setting": "CNR1", "result": -37.5, "unit": "%"},
      {"measurement": "% Activity, arrestin, antagonist mode, 2.5 uM", "setting": "ADRA2B", "result": -36.8, "unit": "%"},
      {"measurement": "% Activity, arrestin, antagonist mode, 2.5 uM", "setting": "F2RL1", "result": -9.2, "unit": "%"},
      {"measurement": "% Activity, arrestin, antagonist mode, 2.5 uM", "setting": "GPR109B", "result": -17, "unit": "%"},
      {"measurement": "% Activity, arrestin, antagonist mode, 2.5 uM", "setting": "GPR119", "result": -1, "unit": "%"},
      {"measurement": "% Activity, arrestin, antagonist mode, 2.5 uM", "setting": "HRH1", "result": -38.5, "unit": "%"}
    ]}
  ]
}
